Laboratory results: patent US20120135912A1 (PERSEID THERAPEUTICS, published 2012)

Columns and labels:
[1] = target: T1, human VLA4-Fc (alpha4-Fc/beta1-Fc heterodimer) (human); assay: ELISA, VLA4-Fc coated, 1 mM MnCl2; from EC50 values; ELISA, VLA4-Fc coated on plate, 1 mM MnCl2 (activated VLA4); fold relative to human 2D-VCAM-1
T1 construct: Soluble heterodimer from CHO cells, Protein A purified; also called VLA-Fc
Description: The relative binding affinities of various 2D-VCAM-1 variants to immobilized VLA4-Fc (α4-β1-Fc) heterodimer, relative to a control protein (e.g., Q38L-2D-VCAM-1 or to human 2D-VCAM-1), were deter using a solid-phase ELISA assay. […] The dilution series was transferred into the ELISA plate which was incubated at room temperature for 2 h and subsequently washed with TBS-T. Bound 2D-VCAM protein was detected by incubation with 0.5 ug/ml of biotinylated anti-human VCAM antibody (R&D Systems, Catalog No. BAF809) in TBS-TMC for 1 h at room temperature followed by a TBS-MT (TBS plus 1 mM MnCl2 and 0.02% TWEEN-20) wash and subsequent incubation with 1:2000 dilution of streptavidin-HRP (BD Biosciences, Catalog No. 554066) in TBS-TMC for 30 min at room temperature. […] Fold-improvement in binding was calculated relative to a control protein (e.g., Q38L-2D-VCAM-1 or human 2D-VCAM-1) assayed on the same plate.

[2] = target: T1, human VLA4-Fc (alpha4-Fc/beta1-Fc …); assay: SPR (BIACORE), retest with new polypeptide preparations and new VLA4-Fc; retested with new polypeptide preparations and new VLA-Fc ligand (Table 5B)
Description: (§1) The kinetic 2D-VCAM-1 assay measures binding kinetics of a dimeric ligand (e.g., VLA-Fc fusion protein or LPAM-1-Fc fusion protein) coated to sensor chips and monomeric analyte (e.g., 2D-VCAM-1 variant polypeptides) in the mobile phase. Goat anti-human IgG antibody (Jackson ImmunoResearch, Catalog No. 105-005-098) was immobilized on CM-5 sensor chips (GE Healthcare, Catalog No. BR-1000-14) according to the manufacturer's protocol. Antibody was diluted to 30 μg/ml in immobilization buffer (10 mM sodium acetate, pH 5.0 (GE Healthcare, Catalog No. BR-1003-51)). […] Un-reacted sites were quenched with 35 μl of 1 M ethanolamine-HCl pH 8.5 (GE Healthcare, Catalog No. BR-1000-50). This procedure typically yielded 15,000 response units (RU) of coupled antibody. VLA4-Fc or LPAM-1-Fc, prepared as described in Examples 3 and 4, respectively, were bound to antibody-coated sensor chips by injection of 20 μl of ligand solution (20 μg/ml protein in HBS-P-Mn buffer at a flow rate of 10 μl/min). Ligand capture levels were typically 200-300 RU. […] Typically, 8 dilutions of 2D-VCAM-1 variant polypeptides ranging from 150 nM to 0.069 nM were analyzed against a blank reference (HBS-P-Mn buffer alone).

[3] = target: T1, human VLA4-Fc (alpha4-Fc/beta1-Fc …); assay: SPR (BIACORE), VLA4-Fc captured by anti-human IgG, 1 mM MnCl2, 1:1 Langmuir; standard BIACORE assay, first preparation (Table 5A); KD ratio relative to human 2D-VCAM-1
Description: as §1

T1 sequence (chain, as listed by the source limits assumed, form in doubt, chain 1 of 2): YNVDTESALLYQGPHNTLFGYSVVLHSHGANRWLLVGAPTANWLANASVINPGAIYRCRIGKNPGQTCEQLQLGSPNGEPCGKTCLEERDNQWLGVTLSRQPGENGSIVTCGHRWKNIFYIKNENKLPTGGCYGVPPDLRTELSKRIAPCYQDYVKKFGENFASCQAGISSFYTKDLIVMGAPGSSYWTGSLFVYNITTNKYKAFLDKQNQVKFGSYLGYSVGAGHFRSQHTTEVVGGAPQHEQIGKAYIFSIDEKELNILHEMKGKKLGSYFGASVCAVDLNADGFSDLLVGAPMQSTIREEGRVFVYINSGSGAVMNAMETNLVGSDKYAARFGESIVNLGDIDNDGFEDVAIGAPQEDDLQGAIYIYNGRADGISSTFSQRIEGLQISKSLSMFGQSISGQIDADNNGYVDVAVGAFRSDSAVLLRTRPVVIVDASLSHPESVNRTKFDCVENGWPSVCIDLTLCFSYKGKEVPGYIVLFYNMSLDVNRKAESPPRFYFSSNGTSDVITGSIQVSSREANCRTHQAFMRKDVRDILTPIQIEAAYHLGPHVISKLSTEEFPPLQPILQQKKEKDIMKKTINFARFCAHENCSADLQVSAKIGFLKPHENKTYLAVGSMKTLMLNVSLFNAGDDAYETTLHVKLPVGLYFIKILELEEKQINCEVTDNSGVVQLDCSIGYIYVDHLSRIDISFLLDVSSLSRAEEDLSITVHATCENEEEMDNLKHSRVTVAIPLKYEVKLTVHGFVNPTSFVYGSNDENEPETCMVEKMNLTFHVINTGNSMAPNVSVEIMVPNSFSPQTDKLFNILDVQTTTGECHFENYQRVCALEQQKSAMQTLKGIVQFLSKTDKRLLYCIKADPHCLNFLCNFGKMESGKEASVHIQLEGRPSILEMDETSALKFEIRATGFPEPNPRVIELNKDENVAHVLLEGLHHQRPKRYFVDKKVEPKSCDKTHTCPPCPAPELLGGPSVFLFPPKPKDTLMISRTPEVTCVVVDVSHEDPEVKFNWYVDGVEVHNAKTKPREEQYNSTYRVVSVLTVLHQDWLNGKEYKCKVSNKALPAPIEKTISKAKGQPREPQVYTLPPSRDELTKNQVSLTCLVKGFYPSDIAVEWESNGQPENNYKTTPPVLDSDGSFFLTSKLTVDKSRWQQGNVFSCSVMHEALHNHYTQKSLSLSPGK
T1 sequence (chain, as listed by the source limits assumed, form in doubt, chain 2 of 2): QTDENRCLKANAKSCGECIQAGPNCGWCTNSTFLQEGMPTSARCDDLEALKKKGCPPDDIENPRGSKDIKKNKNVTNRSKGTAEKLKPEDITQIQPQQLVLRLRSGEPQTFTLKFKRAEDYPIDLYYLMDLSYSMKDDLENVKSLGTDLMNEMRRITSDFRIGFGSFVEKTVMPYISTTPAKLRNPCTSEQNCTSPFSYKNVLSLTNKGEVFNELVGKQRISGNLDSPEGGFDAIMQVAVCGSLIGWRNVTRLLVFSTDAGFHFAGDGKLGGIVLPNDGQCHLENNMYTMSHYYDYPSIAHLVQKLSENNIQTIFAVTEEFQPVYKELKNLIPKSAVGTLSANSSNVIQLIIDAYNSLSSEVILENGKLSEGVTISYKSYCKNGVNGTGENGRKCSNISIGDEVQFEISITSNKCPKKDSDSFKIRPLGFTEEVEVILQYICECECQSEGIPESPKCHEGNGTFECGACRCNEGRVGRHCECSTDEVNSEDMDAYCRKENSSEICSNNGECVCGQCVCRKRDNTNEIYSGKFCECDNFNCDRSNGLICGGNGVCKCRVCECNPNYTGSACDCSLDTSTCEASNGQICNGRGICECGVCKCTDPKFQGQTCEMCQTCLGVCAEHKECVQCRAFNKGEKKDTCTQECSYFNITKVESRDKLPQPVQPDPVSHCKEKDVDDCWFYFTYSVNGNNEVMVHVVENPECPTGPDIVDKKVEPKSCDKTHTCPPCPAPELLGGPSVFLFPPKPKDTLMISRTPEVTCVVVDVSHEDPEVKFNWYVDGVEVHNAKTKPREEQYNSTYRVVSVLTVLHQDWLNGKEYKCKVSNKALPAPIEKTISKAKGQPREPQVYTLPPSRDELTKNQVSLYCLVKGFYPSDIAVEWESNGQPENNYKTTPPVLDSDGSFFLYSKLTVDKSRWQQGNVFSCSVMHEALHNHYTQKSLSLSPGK

B1: 2D-VCAM-1 variant Clone 146 (ligand, not shown: small tags and cut ends)
chain: FKIETTPESRYLAQIGDSVSLTCSTTGCESPLFFWRPLLDSPLNGKVTNEGTTSTLTMNPVSFGNEHSYLCTARCESRSLEKGIQVEIYSFPKDPEIHLSGPLEAGKPITVKCSVADVYPFDRLEIDLLKGDHLMKSQEFLEDADRKSLETKSLEVTFTPVIEDIGKVLVCRAKLHIDEMDSVPTVRQAVKELQVYISP
[1]
  fold-improvement in binding relative to human 2D-VCAM-1: 298 fold
[2]
  Kd: 0.018 nM
[3]
  binding affinity for VLA4-Fc relative to human 2D-VCAM-1: 306 fold
